The assay deals with Three of the mutant needles, I933A, N937A, and G938A. The assay can be described thus: ELISA; gp37 trimers coated (100 ng/well) overnight at 4°C, casein block, OmpC added (various molar ratios; gp37:OmpC 1:1 for the mutants), 37°C 2 hr, PBS-T washes, bound OmpC detected with mouse anti-OmpC sera and HRP anti-mouse IgG. In general terms: An ELISA detects its analyte on a solid surface through an enzyme-linked reagent.

Here are results for one molecule from article PMC6957217.

B1: recombinant OmpC trimer (outer membrane protein C) (natural protein)
chain: AEVYNKDGNKLDLYGKVDGLHYFSDNKDVDGDQTYMRLGFKGETQVTDQLTGYGQWEYQIQGNSAENENNSWTRVAFAGLKFQDVGSFDYGRNYGVVYDVTSWTDVLPEFGGDTYGSDNFMQQRGNGFATYRNTDFFGLVDGLNFAVQYQGKNGNPSGEGFTSGVTNNGRDALRQNGDGVGGSITYDYEGFGIGGAISSSKRTDAQNTAAYIGNGDRAETYTGGLKYDANNIYLAAQYTQTYNATRVGSLGWANKAQNFEAVAQYQFDFGLRPSLAYLQSKGKNLGRGYDDEDILKYVDVGATYYFNKNMSTYVDYKINLLDDNQFTRDAGINTDNIVALGLVYQF
Consider B1, for which the fold binding against the WT needle lay within 2 to 3 fold.
